From patent US20130274692A1, “SUBCONJUCTIVAL IMPLANT FOR POSTERIOR SEGMENT DRUG DELIVERY” (priority 2010, published 2013)
In brackets after ≈: the same amount, converted by molar mass. Read-outs that look alike come from different tables or passages of the source.

Columns and labels:
[1] = tested on: laser photocoagulation treatment-induced Grade IV choroidal neovascularization (CNV) lesions; details: intravitreal injection, all doses tested; cited from earlier work
[2] = human eye (Lucentis package insert); listed as ranibizumab; cited from earlier work
[3] = cited from earlier work
[4] = Solubility of triamcinolone acetonide; type: physicochemical; details: saline or isotonic; 37 C in 0.2 M potassium chloride
Protocol: Consider a device with 10 uL reservoir volume loaded with 0.4 mg using a commercial drug product (40 mg/mL triamcinolone acetonide). […] The target release rate is 1 ug/day based upon published clinical data. As an example, consider the 0.2 media grade stainless steel characterized in Example 8 with P/F=0.12 and a thickness of 0.5 mm. […] This could be achieved with a cylindrical device having an inner diameter of 2 mm and a length of porous tubing of 1 mm. Alternatively, the end of the device could be a porous cup with height of 0.8 mm (0.5 mm thick porous face plus 0.3 mm length) of porous tubing.

solubility [4] [µg/mL] | Molecule | development of Grade IV CNV lesions [1] | half-life in the vitreous [2] [h] | Half-life ([3]; monkey model (Gaudreault et al.), parameter of Simulations 1-5) [h] | half-life in the vitreous ([3]; rabbit and monkey, listed as ranibizumab)
 | ranibizumab [Lucentis] | completely inhibited | ~220 | 63.1 | approximately 3 days
19 (≈ 43.7 µM) | CC1(C)O[C@@H]2C[C@H]3[C@@H]4CCC5=CC(=O)C=C[C@]5(C)[C@@]4(F)[C@@H](O)C[C@]3(C)[C@]2(C(=O)CO)O1 [triamcinolone acetonide] |  |  |  | 
